{
  "source": "the DeepSol protein solubility set",
  "data": [
    {"assay": "soluble on expression in E. coli; label from the status in PepcDB or PDB records", "values": [
      {"sequence": "MGSDKIHHHHHHMLMNIGKVDNIKIYTLAEDYAGYNSPFWSQHGLSFLIEVESNGIKKRILFDTATYAEPILFNMKLLNINPKSIDMIILSHNHFDHTGGLFGIMKEINKEIPIFAHPNIFKVSFATEPEFMLAGTLNKTLKEDIEKLGGRWVLSRDPIRLMPGIFTLGEIEDEEKINFEKKPTIGLYKLENGRVVLDNVEDEIGLAIVTEKGLIIVSGCSHPGIVSMVKKSIKISGINKVYAVIGGFHLIDADNERIVSTIKALKKLGVKKICTGHCTGFKAENMFMEEFKEDFERLHAGKIIKF", "soluble on expression in E. coli": "not soluble"},
      {"sequence": "MGSDKIHHHHHHMVIYMIGGSPCSGKSTIASLLARQYQLLHIKLDDLVDEMMSQASADSQPICLLRQDRNPEQIWMRNPKEMADEEWRFYEEIFPYVKSYLIKKDRPLLVEGAGLLPHLVKELEWPASSYLCLTPTADFQKKHYRQREWVSYVLEGTTNPEQAFENWMQRDILFAQMVRKEAMRLGYSSLMTDGSQSEKQTAEEIARLLKLYNINEIDIKGENT", "soluble on expression in E. coli": "not soluble"},
      {"sequence": "MNKQEVILKVQECAAWWILERQSKLTKLMSETMSINPFMTPFIFDYHSLNDFDELVEAIIAKHLMTGHDTGFGKLIDEKILPRVFGAYKLDKSYRAANEPFIHPCFDEIDHVIQRDDGRIELLSLKAGKWTIQLTMAVQLNKAFHEIINNYPGVADNIVVGVFYGNSHGLTDKYRILRGINTGANHNVIDIRDKVHVYAGKEFWSWLNNGEAETQHWVLEGIERAVKEADIKEKNKDLIEKFKEHVAKKYNEQVLNADGTAQWHKLLEMINE", "soluble on expression in E. coli": "soluble"},
      {"sequence": "MAFNDCFSLNYPGNPCPGDLIEVFRPGYQHWALYLGDGYVINIAPVDGIPASFTSAKSVFSSKALVKMQLLKDVVGNDTYRINNKYDETYPPLPVEEIIKRSEFVIGQEVAYNLLVNDCEHFVTLLRYGEGVSEQANRAISTVEFVTAAVGVFSFLGLFPKGQRAKYY", "soluble on expression in E. coli": "not soluble"},
      {"sequence": "MIRKALLFVEKNETWKKELQIAKSVETVRKRLGQSNLNACSPRKVPLLTVKHVAKQFEYDKIHKDGPVEKWRNIFWSDESKIVLLGGKGSRSYVRRPPRTEYNPRYTFKKFKNCLKGWAFCCLEHHHHHHH", "soluble on expression in E. coli": "not soluble"},
      {"sequence": "MRIESPQNPRVKALAALKERKERERTGRFLVEGRREVERALEAGLSLETLLLGPKARPEDRALAGGAEVLELSERALARVSTRENPAQVLGVFRLPRRSLAGVTLGAAPLVLVLLGLEKPGNLGAILRAADGAGADLVLVAEGVDLFSPQVIRNSTGAVFALPVYPVAEGEAARFLEEHNLPLVAATPEGERLYWEGDYRGGVAFLLGAEDKGLPEAWKRRAQVRVRIPMRGRADSLNVAVTAALLLYEALRQRSGGAPL", "soluble on expression in E. coli": "soluble"},
      {"sequence": "AKQDYYEILGVSKTAEEREIRKAYKRLAMKYHPDRNQGDKEAEAKFKEIKEAYEVLTDSQKRAAYDQYGHAAFEQGGMGGGGFGGGADFSDIFGDVFGDIFGGGRGR", "soluble on expression in E. coli": "soluble"},
      {"sequence": "MGHHHHHHSHMTAYSVGMGAEIQLCSHPIGLSKNQSRNPTKTLDSAKILACSLAQSKQPIRWEADPYNNIVYSIYYMELTLPTTPCRMLPQYQEKYGAVGRGTPYWIYYRKTLYLEIPLSERVGLKGGDTKMGIQDGTHQRDPPFYKPTPPPHIPPVLEKHTGWSYLCGYTWWTP", "soluble on expression in E. coli": "not soluble"},
      {"sequence": "SLEIERINEHTVKFYMSYGDIEDRGFDREEIWYNRERSEELFWEVMDEVHEEEEFAVEGPLWIQVQALDKGLEIIVTKAQLSKDGQKLELPIPEDKKQEPASEDLDALLDDFQKEEQAVNQEEKEQKLQFVLRFGDFEDVISLSKLNVNGSKTTLYSFENRYYLYVDFCNMTDEEVENQLSILLEYATESSISIHRLEEYGKLIISEHALETIKKHFAS", "soluble on expression in E. coli": "soluble"},
      {"sequence": "MARKVIDVRIVNAATAEQESFIKELSMELIHDVFPLYFSELDIQRLKKKGVLSLNNHYYQGTLKEAFQIMACLQMIHIILTKPSPHSDLSDQAIFEKNSKMLNDFGIYFPFAFSDFQKKTNKAFFGQRRLILEHHHHHH", "soluble on expression in E. coli": "not soluble"},
      {"sequence": "ARKRFAGLEPVEMRMEVKAGDHGNTIINDVYSNDVYSLTLALDFQRRRTAETCLKKVLILSDILQSGMPPEELYRHVAGQLQVYALDFFVGIGEEIASHRTCFAGMSAVFFKDVATFLTSGEIERFSNSCILLKGARKYRFEQITERLVQQVH", "soluble on expression in E. coli": "not soluble"},
      {"sequence": "MAVLKGLRPRVPKGLKSPPEPWGWPLLGHVLTLGKNPHLALSRMSQRYGDVLQIRIGSTPVLVLSRLDTIRQALVRQGDDFKGRPDLYTSTLITDGQSLTFSTDSGPVWAARRRLAQNALNTFSIASDPASSSSCYLEEHVSKEAKALISRLQELMAGPGHFDPYNQVVVSVANVIGAMCFGQHFPESSDEMLSLVKNTHEFVETASSGNPLDFFPILRYLPNPALQRFKAFNQRFLWFLQKTVQEHYQDFDKNSVRDITGALFKHSKKGPRASGNLIPQEKIVNLVNDIFGAGFDTVTTAISWSLMYLVTKPEIQRKIQKELDTVIGRERRPRLSDRPQLPYLEAFILETFRHSSFLPFTIPHSTTRDTTLNGFYIPKKCCVFVNQWQVNHDPELWEDPSEFRPERFLTADGTAINKPLSEKMMLFGMGKRRCIGEVLAKWEIFLFLAILLQQLEFSVPPGVKVDLTPIYGLTMKHARCEHVQARRFSINHHHH", "soluble on expression in E. coli": "soluble"},
      {"sequence": "MPLTNNSTTKPQEIAAIDLGSNSFHMVIARVVNGALQVLGRLKQRVHLADGLDSNNMLSEEAIERGLACLALFAERLQGFSPDNVCIVGTHTLRQAANAETFLKRAAEVIPYPIEIISGQEEARLIFMGVEHTQPEKGRKLVIDIGGGSTEMVIGEDFEPLLVESRRMGCVSFAQQFFPGGEISKNNFRRARLAAAQKLENLAWQYRIQGWQYALGASGTIKATYEVLVEMGEKDGLITPERLEMLVENVLQFKQFSALSLPGLSEDRQSVFVPGLAILCGVFDALAIKTLRLSDGALREGVLYEMEGRFRHQDIRQRTAKSLADHYNIDREQARRVLETTEQLYTQWLAQNTKLVQPQLEALLKWAAMLHEVGLSINHSGMHRHSAYILQNTNLPGFNQEQQTLLATLVRMHRKAIKLDELPRLNLFKKKYYLPLIQLLRLSTLLNNQRQSTTTPESLRLITDDSHWTLRFPHGYLTQNSLVQLDFEREQAYWDDVVGWKLVIEEEEPDEAAKVAPEE", "soluble on expression in E. coli": "soluble"},
      {"sequence": "ALLITKKCINCDMCEPECPNEAISMGDHIYEINSDKCTECVGHYETPTCQKVCPIPNTIVKDPAHVETEEQLWDKFVLMHHADKI", "soluble on expression in E. coli": "soluble"},
      {"sequence": "MGSDKIHHHHHHMFQTLDHFLKSWEFEADATQKLLNSLTDESLKQEITSQNWTLGRIAWHTVAAIGIITSNTDLTFQAPAEDYPVPTSAQFIADSYHQASNAFVQALKTQWTDHTLQERINFIGQQMPNGSLLMFLIQHQNHHRGQMTVLMRQAGLTVPGIYGPAKEEWAKFGLEAPKM", "soluble on expression in E. coli": "not soluble"},
      {"sequence": "KYDNKEFSSAVGHYGVGNGPYFMIPGYGPYTLREVTDTVDGMYLPLSYLNIWAGLGKWALEGLEKRALLVPQEAQLDSSPDPYVLTRDVYIQRQNFKAEIDTVEEVNPEEEALLDEYLDEF", "soluble on expression in E. coli": "not soluble"},
      {"sequence": "MAHHHHHHMTPAGAGEIFLRHNPYRSEVISWYRKFLKASFSVPWETDEDALYVLEEARRLFRKNARINDIETIERKLREAEMRYEIGVHYRIPYPRAFHKTQGSLQESGVAYAADLDSMYDHPVSPRIGWIMEGSVNGGTMGGSEHLTQYLEDGPGVENDNLSEGR", "soluble on expression in E. coli": "not soluble"},
      {"sequence": "GPGSMTKLFHHNITAIHEKFQPPFSVDTFRRIARLVLARVEHMPPPDYYDGSAVWRRVRHYMRQWIKKPDPSEVCMVPLLDLVNHSNRPNCGLRVGPSSVVGGKGAITLYSIARINPGQEICRHYNFAINRPNALFRYGFLPFDLISIVEHDAIDEYLVKNQHMLREESEEVRMKQQKEREEIQKLEKIFQHARSGR", "soluble on expression in E. coli": "not soluble"},
      {"sequence": "MMNQSRIKPVRMLILLRKLSPISRRIRIRNRLKQKTRSATIKSRCNPCLISVLANCYWCSSSASPPSGAATTACGGKNGSGLDSRVAFTGDNGAERTDPGVKTPGVSGQSEKG", "soluble on expression in E. coli": "not soluble"},
      {"sequence": "MGSDKIHHHHHHMGVVRTDKWLKRYVVQWPKAQVAGEKFELQQKLIISLLKDAFHTDHLDELQQQLLGQGLFLPTDDIELSYRALQDRAIWHLVHKQYTELREKWKGPNVPIYLFPVNTANPTIREQLGMKMGVSYRDKIVLFIGEMTSDQDVQALVTHEYHHCCRLTQLKLYEGTMTLLESMVMEGLAEKAVAEEVGRDALAIWTSRYDKADLHSLWALLLEQRMMKGRDRHYPYLFGGVGGIPEWAGYYLGYRIVDQAMKNDPTLTTTSMMKMEAEAILQRSFSAKRGRAVAVRGREISRDHS", "soluble on expression in E. coli": "not soluble"},
      {"sequence": "MWLEKFKNKNKETKYRYYEKYKDPLTAKWRRVSVVLNKNGKQSQKEAQRLLNERIEAKLNDKTPTTLKSLTFHVACDEWFQSYIKTSGSKRTTIKTKLSKLNTLKKFVDEDILINKITLSYAQQVFDEMDNKGYVYQVNKDALSIFKNVFEYTRRIYKLQDLEFLKDITLNKRIKSYDEVKAKRNKYLELNEIQSIIKDINTKAQKMHSGIHKRFYLFVALMTEFQALNGMRIGEMLAIQNEDIDFDNKSLNINGTIHWFHDESGGFGVKDTTKTESSYRTIGLSSRSCEILKKAILENKKDSKWNDGYLNRNFVFTNHKGNPMQTERFNKILREAAKDVGIDKEVSSHILRHSHISLLSQQGVSLKAIMDRVGHSDHRTTLSIYSHVTEQMDKDMMNKLEQVKLG", "soluble on expression in E. coli": "not soluble"},
      {"sequence": "MSLKIEPKIFDELKTALVSFGDKYFVGEELNRSKLADDLRNYDEALLSKLFEVDFIMQHFVKEVAGQKLFQIEQLEEAVLYNDYWDTSYTKYENRVGLASKGKFLQDSQDVVLDFPFKDCVLTASMTKENNEEGYDDAFLNEVIEKDEIDRLFDKKVFVNVKRFGDNQGAQHSTAVDNEIVSFDKEKDNLIIKGNNLLALHALKNEFAGKVRQIYIDPPYNTGKDSFNYNDKFNHSSWLVFMKNRLEIAWELLSDDGTIWISIDGYESHYLKVLADGIFGAENFLDEVVWQRAYAPINLKKTFSKSHDYILVYAKNNSGAKELNRLPRKAEMVASYKNPDNDPRGVYKADNFSVGPAVEKNIYEITTPSGRKVLPPDGYSWRFSKERFEELLADNRVYFGKDGNSAPSYKRFLSEVKDGVVAQTLWTYQEVGHNQDAKKEIKSLFDGQTAFGTPKPEKLIQRILTLGSDENDLVLDFFMGSATTQAVAMKMNRRFIGIEQMDYISTVSVPRLQKVIEGEQGGISKDVNWQGGGSFVYAELFPKNMGYLQDVIHAKDLEELKSVYERMLSGTDTDEPADISFRADLSKIDWLQGFDENKRLLVKLLDKNGLYYNYSEIDDKNVRDLISDEDYTFNKNFYEGGEGHHHHHH", "soluble on expression in E. coli": "soluble"},
      {"sequence": "MKKVLLTLSLSIVASMGSFAQNEPYKNPKLTPEERAEDLLGRLTLKEKIGLMKNSSFAVERLGVAPYNWWSEALHGVARNGLATVFPITMGMASTFDDEAIERVYVAVSDEGRAKFHDAHRSNRYGYGNEGLTFWNPNVNIFRDPRWGRGQETFGEDPYLTTRMGVAVVKGMQGPADAEYDKAHACVKHYAVHSGPEAKRHSFDVEDLSPRDLWETYLPAFKALVQEADVKEVMCAYQRLEGEPCCDSNRLLTQILRDEWGYKHLVVSDCGAIDDFFVKGRHETHKDAADASASAVINGTDLECGSIYSHLEEAVKQGLITEERIDTSLRRLLKARFALGEMDP", "soluble on expression in E. coli": "not soluble"},
      {"sequence": "MGSDKIHHHHHHMKISEVATPNFLLDLDQLEKNIDKIQQICTNNNKQLWPMLKTHKSTYIARLQKNAGASGFLVGTLDEGEALIKAGFEDIMLAYPYMGEVNINRIVTMASKINLICATDNIECAKAYSEAFSKSKIECKLLIIVDCGLHRFGVEPEKVVELATEISKLENIKIVGISSHPGQVYGCSSPEGVPDVCVQEDSSMEKAYKALTDNGFNIEIVASGSTPTVESEAACKTITAVRPGNYVYYDAIQIGLGCATEDMCALTVVCTVISKNSSGYYLIDCGSKCLGLDKGAHGNSSIVGYGRVCGHPELTIDSLSEEVGKIKVNGETDIKIGDRIRIIPNHSCSTANLTSNLLGFRGDTIEKVIEVDIRENSKQIIL", "soluble on expression in E. coli": "not soluble"}
    ]}
  ]
}
